Reference: patent US8088892B2, “Inhibitors of proteins from the Rho-GEF family” (Centre National de la Recherche Scientifique (C.N.R.S.), priority 2002, dated 2012)

B1: TRIAPα: aptamer of 154 amino acids: variable region of 42 amino acids inserted into the thioredoxin protein; tested as GST fusion (protein)
chain: MSDKIIHLTDDSFDTDVLKADGAILVDFWAEWCGPAREGADGAICGYNLATLVMLGPSERVFCPLCEPCSSDIYELMGPCKMIAPILDEIADEYQGKLTVAKLNIDQNPGTAPKYGIRGIPTLLLFKNGEVASATKVGALSKGQLKEFLDANLA

Columns and labels:
[1] = target: TrioGEFD2 (Homo sapiens, UniProt O75962); assay: Co-immunoprecipitation of HA-TrioGEFD2 with GFP-TRIPα in COS cells; type: binding; set-up: using recombinant GST-TrioGEFD2 (a.a. 1848-2298), TrioDH2 (a.a. 1848-2096); made in house; conditions: anti-GFP IP, anti-HA western blot
Source text: HA-TrioGEFD2 was co-expressed with either GFP-TRIPα (right column) or GFP alone (left column). The upper panel represents the immunoprecipitation (IP) with the anti-GFP antibody (α-GEP), followed by a western-blot (WB) using the anti-HA antibody (α-HA) and the two lower panels represent the expression of the proteins in the cell lysates.
The Inventors next wanted to determine the effect of TRIPα on GEFD2-mediated RhoA activation in intact cells. First, it was checked whether TRIPα could bind to TrioGEFD2 in mammalian cells. For that purpose, vectors expressing the variable region of TRIAPα (TRIPα) fused to GFP in the pEGFP-C3 plasmid (Clontech) were designed. GFP or GFP-TRIPα were co-expressed with pMTHA-TroGEFD2 by transfection of COS cells using Lipofectamine Plus (Life Technologies) according to the manufacturer's protocol. Immunoprecipitation of GFP-tagged constructs from COS cell lysates were done with the polyclonal rabbit anti-GFP antibody (Torrey Pines Biolabs, Inc.).

[2] = target: T1, Full length Trio (RhoA) (Homo sapiens, UniProt O75962); assay: Yeast Exchange Assay (YEA), full length Trio on RhoA; type: cell-based; set-up: key: “+ +” represents a slight activation of the reporter gene; “+ + + +” represents a strong activation of the reporter gene; “−” represents no activation of the reporter gene; conditions: +TRIPα (−TRIPα: −)
T1 construct: Full length Trio was introduced into the YEA; expressed in transfected cells; host or cells: yeast strain TAT7
Source text: The wild type GTPase is fused to the LexA DNA binding domain (Matchmaker GAL4 two-hybrid, Clontech Laboratories, Inc., USA) and the effector to the […] (Matchmaker GAL4 two-hybrid, Clontech, Inc., USA). Under these conditions, no binding occurs in the TAT7 strain (De Toledo et al., 2000). Upon addition of a third plasmid expressing the GEF, the GTPase gets activated and binds to its effector, thus leading to the transactivation of the reporter gene LacZ.
Full length Trio was introduced into the YEA and tested for its ability to activate RhoA and RhoG respectively, in the presence or absence of TRIPα. The table below summarizes the effect of TRIPα on Trio as schematized in this Figure.
In order to better characterise the effect of TRIAPα on the Trio full length RhoGEF activity, the yeast exchange assay (YEA) was used, which is a quick and quantitative test derived from the classical two-hybrid system allowing to measure Rho-GEF activity and specificity (De Toledo et al., 2000). This functional assay is based on the fact that the GTPase binds to its effector only if it is activated by a RhoGEF. Briefly, yeasts are transformed with the GTPase fused to the LexA binding domain (LexA), and its effector to the GAL-4 Activating Domain (GAD), and with the adequate Rho-GEF partner in the yeast strain TAT7 (FIG. 7). […]

[3] = target: T2, Dbl (Homo sapiens, UniProt P10911); assay: Binding specificity of aptamers in yeast; set-up: key: +++^1 and +^1 represent respectively a full and a partial (see FIG. 1) binding capacity; +++^1 and +^1 represent respectively a full and a partial (see FIG. 1) binding capacity; −−^1 represents a lack of binding; conditions: RhoGEF Dbl
T2 construct: Dbl (a.a. 498-826); expressed in transfected cells; host or cells: yeast
T2 sequence (P10911 498-826): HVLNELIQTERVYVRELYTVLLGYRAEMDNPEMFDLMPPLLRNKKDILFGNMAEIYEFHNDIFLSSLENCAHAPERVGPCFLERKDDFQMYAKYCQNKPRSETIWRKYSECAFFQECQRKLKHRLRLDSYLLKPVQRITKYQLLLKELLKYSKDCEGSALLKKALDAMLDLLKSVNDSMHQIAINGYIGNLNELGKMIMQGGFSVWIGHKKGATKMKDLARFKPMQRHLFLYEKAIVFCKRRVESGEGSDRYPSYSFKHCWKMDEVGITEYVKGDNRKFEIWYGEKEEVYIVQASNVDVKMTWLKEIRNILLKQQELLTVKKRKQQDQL
Source text: Trx represents the thioredoxin protein with no inserted peptide.
In order to identify specific inhibitors of TrioGEFD2, a recently developed strategy was used, this strategy being derived from the yeast two hybrid system, where the cDNA library of preys has been replaced by a combinatorial library of short peptides (20 amino acids) in fusion with the bacterial protein thioredoxin A (Colas et al., 1996). This strategy has been successfully used to isolate specific inhibitors of the cyclin-dependent kinases (Cdks), the cell cycle transcription factor E2F, or the viral HPV16 E6 oncoprotein and HBEV core protein (Colas et al., 1996; Butz et al., 2001; Fabrizzio et al., 1999; Geyer et al., 2000). The TrioGEFD2 bait was constructed as follows: plasmid pMTHATrio1848-2298 (Bellanger et al., 1998) was digested with EcoRI/XhoI and the insert cloned in pEG202EcoRI/XhoI to generate the bait pEG202TroGEFD2. Yeast strain EGY048 (Colas et al., 1996) was transformed with pEG202TrioGEFD2 and subsequently with the library of Thioredoxin constrained aptamers according to standard procedures (Ito et al., 1983). After transformation, cells were allowed to recover for 4 hours in galactose containing medium before plating on selective galactose medium. Of the 2×10^6 screened colonies, those growing in the selective medium were recovered and retested for interaction. […] Binding specificity was investigated by screening for interaction with the following baits: TrioDH2 (a.a. 1848-2096), TrioPH2 (a.a. 2107-2223), TrioGEFD1 (a.a. 1232-1629), Dbl (a.a. 498-826), Vav (ala. 172-598) (Zhang et al, 1994), GEFD2 domain of Kalirin (a.a. 1640-1980)(Penzes et al., 2001), p115RhoGEF (a.a. 391-870)(Wells et al, 2002) and PDZRhoGEF (a.a. 964-1362) (Fukuhara et al., 1999). None of these aptamers interacted with other RhoGEF members such as Dbl, Vav, and the RhoA-specific GEFs p115RhoGEF and PDZRhoGEF.

| Molecule | Interaction with TrioGEFD2 in mammalian cells [1] | activation of the reporter gene by full length Trio, RhoA [2] | Binding in yeast [3] |
| --- | --- | --- | --- |
| AREGADGAICGYNLATLVMLGPSERVFCPLCEPCSSDIYELM [TRIPα, 42-amino acid peptide corresponding to the variable region of TRIAPα] | interacts with TrioGEFD2 in mammalian cells | − |  |
| B1 |  |  | −−^1 |
